The numbers were not newly measured in article PMC8329073, which cites them from elsewhere.

In this series the target is Thrombin (UniProt P00734+P00734). Conditions: 20 mM Tris-HCl pH 7.5 (22 °C), 100 mM NaCl, 0.1 mM EDTA, 5 mM MgCl2 (20 mM MgCl2 for DNAzyme), room temperature; indirect read-out by strand-displacement ….

As for thrombin DNA aptamer (parent, ref 67), the Kd is 0.5 nM.

As a reminder, the Kd is a measure of binding affinity in units of concentration.
